Laboratory results as given in US20040096912A1.

Target: µ opioid receptors in brain membranes of heterozygous Cre/S196A mice
Assay: [^3H]DAMGO saturation binding, Scatchard analysis, brain membranes of heterozygous Cre/S196A mice

Substance: [^3H]DAMGO ([D-Ala^1.N-McPhe^4.Gly^5-ol]enkephalin) (peptide)
- Kd: 2.45 nM
